US20200140562A1 (Innovent, published 2020)

Experiments:
[1] = biological target: T1, human OX40 on cells (CHO-hOX40, 293HEK-hOX40, Jurkat-hOX40, activated primary CD4+ T cells) (human, UniProt P43489 29-277); experiment: flow cytometry, CHO-hOX40, 3.125 nM
T1 construct: whole, on cells; The cell type is told in each assay; also called CHO-OX40
T1 sequence (looked up): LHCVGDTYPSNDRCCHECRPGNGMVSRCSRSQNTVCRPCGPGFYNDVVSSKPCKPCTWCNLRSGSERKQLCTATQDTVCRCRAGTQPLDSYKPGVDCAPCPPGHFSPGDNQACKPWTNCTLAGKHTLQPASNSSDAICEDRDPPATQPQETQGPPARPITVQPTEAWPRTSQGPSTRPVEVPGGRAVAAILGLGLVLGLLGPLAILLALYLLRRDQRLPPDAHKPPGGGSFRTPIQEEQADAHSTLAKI

[2] = biological target: T1, human OX40 on cells (CHO-hOX40, …); experiment: flow cytometry, CHO-hOX40, 50 nM
[3] = biological target: T1, human OX40 on cells (CHO-hOX40, …); experiment: flow cytometry, CHO-hOX40, 6.25 nM
[4] = biological target: T1, human OX40 on cells (CHO-hOX40, …); experiment: flow cytometry, CHO-hOX40, 25 nM
[5] = biological target: T1, human OX40 on cells (CHO-hOX40, …); experiment: flow cytometry, CHO-hOX40
[6] = biological target: T1, human OX40 on cells (CHO-hOX40, …); experiment: flow cytometry, CHO-hOX40, 1.5625 nM
[7] = biological target: T1, human OX40 on cells (CHO-hOX40, …); experiment: flow cytometry, CHO-hOX40, 0.390625 nM
[8] = biological target: T1, human OX40 on cells (CHO-hOX40, …); experiment: flow cytometry, CHO-hOX40, 100 nM
[9] = biological target: T1, human OX40 on cells (CHO-hOX40, …); experiment: flow cytometry, CHO-hOX40, 0.048828125 nM
[10] = biological target: T1, human OX40 on cells (CHO-hOX40, …); experiment: flow cytometry, CHO-hOX40, 25 nM; remark: listed apart in the source
[11] = biological target: T1, human OX40 on cells (CHO-hOX40, …); experiment: flow cytometry, CHO-hOX40, 0.78125 nM
[12] = biological target: T1, human OX40 on cells (CHO-hOX40, …); experiment: flow cytometry, CHO-hOX40, 100 nM blocker, competitor OX40L-hFc-fluorescein
[13] = biological target: T1, human OX40 on cells (CHO-hOX40, …); experiment: flow cytometry competition on CHO cells expressing human OX40; blocked ligand OX40L-mFc (60 ug/ml), detected with anti-murine Fc-FITC

- MFI [1]: 342000 MFI
- MFI [2]: 1.08e+06 MFI
- MFI [3]: 600000 MFI
- MFI [4]: 2.8e+06 MFI
- EC50 [5]: 5.33 nM
- MFI [6]: 554000 MFI
- MFI [7]: 49700 MFI
- MFI [8]: 2.51e+06 MFI
- MFI [9]: 34000 MFI
- MFI [10]: 1.84e+06 MFI
- MFI [11]: 317000 MFI
- MFI of OX40L signal on CHO-OX40 cells [12]: 19300 MFI
- IC50 (read off the curve) [13]: ~20 nM
B1: OX40L (control reagent; recombinant OX40L, Acro Biosystems) (ligand, UniProt P23510 51-183, looked up)
chain: QVSHRYPRIQSIKVQFTEYKKEKGFILTSQKEDEIMKVQNNSVIINCDGFYLISLKGYFSQEVNISLHYQKDEEPLFQLKKVRSVNSLMVASLTYKDKVYLNVTTDNTSLDDFHVNGGELILIHQNPGEFCVL
notes: may be the same reagent as OX40L-hFc
